Columns and labels:
TOPBP1 BRCT0-1-2, 1-290 [1] = molecular target: TOPBP1 BRCT0-1-2, 1-290 (UniProt Q92547); experiment: fluorescence polarisation titration; details: reference: pT1260 peptide, untreated; sites T1260
TOPBP1 BRCT0-1-2, 1-290 [2] = molecular target: TOPBP1 BRCT0-1-2, 1-290 (UniProt Q92547); experiment: biotin-peptide pull-down, Coomassie SDS-PAGE; details: reference: unphosphorylated T1260 peptide; sites T1260
TOPBP1 = TOPBP1 (UniProt Q92547); experiment: GFP-Trap co-IP, western blot; details: reference: eGFP-SLX4 wild type; sites T1260

SLX4 1253-1267 (from UniProt Q8IY92) pT1260 peptide treated with lambda phosphatase
binding against the reference (TOPBP1 BRCT0-1-2, 1-290 [1]): lost

SLX4 1247-1267 (from UniProt Q8IY92) synthetic pT1260 peptide
binding against the reference (TOPBP1 BRCT0-1-2, 1-290 [2]): gained

SLX4 (from UniProt Q8IY92) eGFP-SLX4 T1260A
binding against the reference (TOPBP1): lost

Reference: publication PMC12661054, “The CIP2A-TOPBP1 axis facilitates mitotic DNA repair via MiDAS and MMEJ” (Nature Communications, 2025)
